# Patent US11643467B2, “Monoclonal antibody anti-FGFR4” (EXIRIS S.R.L., priority 2017, dated 2023)
# How the values were obtained:
# [1] = test system: FGFR4-dependent phosphorylation of FRS2; experiment: Western blot of FGF19-induced FRS2/FGFR4 phosphorylation in HCC cells; assay type: cell-based, human; conditions: Huh7; antibodies 100 or 200 ug/mL, BLU9931 0.1 uM or 1 uM; FIG. 21
# Experimental: FIG. 21. Inhibition of FGF19-dependent FGFR4 and FRS2 phosphorylation in Huh7 cells treated with the anti-FGFR4 chimeric antibodies analyzed by Western Blot. Cells were treated with 100 or 200 ug/mL of each antibody, with 0.1 uM or 1 uM BLU9931, or with PBS prior of the addition of FGF19/heparin under the experimental conditions described in the Example 8.
# FIG. 31. […] (A) Graph of the absorbance values at 450 nm obtained from a FGFR4-Fc-dependent solid phase binding assay, as a function of the concentration of ab41948. Serial 1:3 dilutions (10 experimental points from 0.00005 ug/mL to 1 ug/mL) were tested in triplicate on the extracellular regions of FGFR4 fused with human Fc. The continuous line is the experimental one while the dashed line is that obtained by fitting experimental data to the “one site binding” equation. […] Inhibition curves were derived by 4P logistic fitting of the experimental data with the KaleidaGraph software, based on the residual absorbance at 450 nm (% of PBS control) at increasing antibody concentrations (1:3 serial dilutions from 0.001 to 10 ug/mL). […]
# BLU9931 was included as positive control Ih before cell lysis at concentrations of […]. Total protein lysates in SDS were prepared and analyzed by Western Blot using an anti-phospho-FRS2 antibody (Tyrl96, Cell Signalling), an anti-FRS2 antibody (LSBio) and an anti-GAPDH antibody (Sigma-Aldrich). […]
# [2] = test system: FGFR4 signalling pathway (CYP7A1, CTGF mRNA)
Compound,inhibition of FGF19-induced FGFR4 and FRS2 phosphorylation [1],increase of CTGF expression [2],reduction of CYP7A1 expression [2]
"C=CC(=O)Nc1cccc(C)c1Nc1ncc2cc(-c3c(Cl)c(OC)cc(OC)c3Cl)ccc2n1 [BLU9931, reference compound]",could inhibit FGF19-induced FGFR4 and FRS2 phosphorylation,,
"FGF19: recombinant FGF19 (Peprotech), FGFR4 ligand",,about 2.5 fold,about 5 fold
